Results on two substances are retold here after publication PMC4234509.

For test [1], the target named is trypsin-digested EvpP (associated 10-kDa and 4-kDa fragments) (Edwardsiella tarda PPD130/91). Put plainly: SEC; EvpP after limited trypsin digestion (protein:trypsin 100:1), HiLoad 16/60 Superdex 75.
In test [2] the target is EvpP (E. tarda virulent protein P), wild type, 6x His-tagged (Edwardsiella tarda PPD130/91). Put plainly: SEC; Superdex 75 HiLoad 16/60; EvpP eluted at ~72 ml, standards ovalbumin (44 kDa) at 63 ml and myoglobulin (17 kDa) at 83 ml. On the technique in general: In gel filtration, larger molecules generally elute earlier.
Test [3] shares this target. Kind of test: dynamic light scattering; 50 µM protein, 20°C, DynaPro; 11 readings.
For test [4] the target is unchanged. Kind of test: cross-linking; glutaraldehyde, room temperature, different time periods, SDS-PAGE.

The substance “trypsin-digested EvpP (associated 10-kDa and 4-kDa fragments) (complex)” yielded a stoichiometry N in test [1] of 2.

As for “EvpP (E. tarda virulent protein P), wild type, 6x His-tagged (natural protein)”, the stoichiometry N in test [2], in test [3] and in test [4] was 2 in each case.

For orientation: stoichiometry N means the number of molecules, sites or subunits per partner or assembly.
